Reference: article PMC3171153

Key:
Experiment in all cases: SPR; BIAcore T100; scFv-His10-CLAMP (150 nM) captured on ePDZ-b1 affinity clamp immobilised on a CM5 chip; purified SHC1 injected at increasing concentrations, 30 ul/min; PBS with 0.05% Tween 20; global fit, 1:1 interaction model
[1] = target: six of the eight chain-shuffled derivatives (positive in immunoprecipitation), as measured by SPR
[2] = target: anti-SHC1 scFv 72_2B01, His10-CLAMP-tagged
[3] = target: anti-SHC1 scFv 72_1A10, His10-CLAMP-tagged
Chain of anti-SHC1 scFv 72_1A10, His10-CLAMP-tagged (heavy, as listed by the source): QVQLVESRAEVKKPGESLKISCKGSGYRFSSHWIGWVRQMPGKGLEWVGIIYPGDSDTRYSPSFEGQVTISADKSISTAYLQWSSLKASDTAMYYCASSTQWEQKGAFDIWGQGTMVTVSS

B1: SHC1 SH2 domain (purified SHC1 antigen) (domain or fragment)
chain: WFHGKLSRREAEALLQLNGDFLVRESTTTPGQYVLTGLQSGQPKHLLLVDPEGVVRTKDHRFESVSHLISYHMDNHLPIISAGSELCLQQPV
Kd [1]: < 60 nM
koff [1]: < 0.1 s⁻¹
fold improvement in affinity over 58 E05 [2]: 59 fold
fold reduction in off-rate against 58 E05 [2]: 3.2 fold
Kd [3]: 25 nM
